Consider four molecules from PMC4712133 (2016).

A word on the Kd: it is the free concentration of one partner at which half of the binding sites on the other are occupied at equilibrium, for simple one-to-one binding. In general, koff refers to the rate constant with which the complex falls apart.

Assay [1] has as its target T1, osteopontin (OPN), recombinant human (human, UniProt P10451 17-314). The assay is described as follows: SPR. A general note: Surface plasmon resonance follows binding to a sensor surface in real time, without labels.
Assay [2] addresses T1, osteopontin (OPN), recombinant human. As to the kind of experiment: SPR. The source holds these as a separate data set.

No end group written: not given here.

T1 sequence (P10451 17-314): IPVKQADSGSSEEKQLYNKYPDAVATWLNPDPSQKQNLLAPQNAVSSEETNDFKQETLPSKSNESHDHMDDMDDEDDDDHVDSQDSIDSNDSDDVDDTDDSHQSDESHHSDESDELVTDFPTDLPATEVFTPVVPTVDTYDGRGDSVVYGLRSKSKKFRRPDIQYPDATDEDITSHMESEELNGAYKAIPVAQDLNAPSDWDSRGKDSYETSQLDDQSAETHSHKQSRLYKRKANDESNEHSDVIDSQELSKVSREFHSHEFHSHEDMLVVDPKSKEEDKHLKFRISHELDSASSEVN

B1: lactoferrin purified from human milk (natural protein)
chain: GRRRSVQWCAVSQPEATKCFQWQRNMRKVRGPPVSCIKRDSPIQCIQAIAENRADAVTLDGGFIYEAGLAPYKLRPVAAEVYGTERQPRTHYYAVAVVKKGGSFQLNELQGLKSCHTGLRRTAGWNVPIGTLRPFLNWTGPPEPIEAAVARFFSASCVPGADKGQFPNLCRLCAGTGENKCAFSSQEPYFSYSGAFKCLRDGAGDVAFIRESTVFEDLSDEAERDEYELLCPDNTRKPVDKFKDCHLARVPSHAVVARSVNGKEDAIWNLLRQAQEKFGKDKSPKFQLFGSPSGQKDLLFKDSAIGFSRVPPRIDSGLYLGSGYFTAIQNLRKSEEEVAARRARVVWCAVGEQELRKCNQWSGLSEGSVTCSSASTTEDCIALVLKGEADAMSLDGGYVYTAGKCGLVPVLAENYKSQQSSDPDPNCVDRPVEGYLAVAVVRRSDTSLTWNSVKGKKSCHTAVDRTAGWNIPMGLLFNQTGSCKFDEYFSQSCAPGSDPRSNLCALCIGDEQGENKCVPNSNERYYGYTGAFRCLAENAGDVAFVKDVTVLQNTDGNNNEAWAKDLKLADFALLCLDGKRKPVTEARSCHLAMAPNHAVVSRMDKVERLKQVLLHQQAKFGRNGSDCPDKFCLFQSETKNLLFNDNTECLARLHGKTTYEKYLGPQYVAGITNLKKCSTSPLLEACEFLRK
Consider B1, for which, in assay [1], the Kd worked out at 2500 nM. In assay [2], the koff was 0.01 s⁻¹.

B2: secretory leukocyte peptidase inhibitor (SLPI), recombinant human (natural protein)
chain: SGKSFKAGVCPPKKSAQCLRYKKPECQSDWQCPGKKRCCPDTCGIKCLDPVDTPNPTRRKPGKCPVTYGQCLMLNPPNFCEMDGQCKRDLKCCMGMCGKSCVSPVKA
For B2, the Kd in assay [1] came out at 430 nM. The koff in assay [2] was found to be 0.0016 s⁻¹.

B3: human beta defensin-3 (hBD-3) (natural protein)
chain: GIINTLQKYYCRVRGGRCAVLSCLPKEEQIGKCSTRGRKCCRRKK
modifications: ends and bridges not checked; cysteine pairing not given here
Take B3: the Kd in assay [1] stood at 790 nM. The off-rate constant (koff) in assay [2] was found to be 0.02 s⁻¹.

B4: midkine (natural protein)
chain: VAKKKDKVKKGGPGSECAEWAWGPCTPSSKDCGVGFREGTCGAQTQRIRCRVPCNWKKEFGADCKYKFENWGACDGGTGTKVRQGTLKKARYNAQCQETIRVTKPCTPKTKAKAKAKKGKGKD
For the molecule B4, in assay [1], the Kd turned out to be 27 nM.
